This assay has as its target MLucV (pTriEx-mTFP1(cp175)-Luciferase-Venus(cp173)), purified reporter protein (firefly) [luciferase: P08659]. Put plainly: SEC-RALS; UMLucV (urea pre-aggregated MLucV), 1 µM, 300 µl on Superdex-200 increase; similar size profile up to 2,000 nM; oligomer of misfolded protomers.

In publication PMC9889267 one finds stoichiometry N data, which are given here for one substance.

“MLucV (pTriEx-mTFP1(cp175)-Luciferase-Venus(cp173)), purified reporter protein (from UniProt P08659 1-544)”: the stoichiometry N turned out to be 12.
